Results: IntAct's records for PubMed 22826121

B1: Protein KASH5 (Mus musculus), Q80VJ8 (parent)
chain: MHSILRSSLSSREALRMRQLKGLRKERPGRHPLGVRLRAIWTSFLFPNPPHSGGKLRASTAAVEEHQEWSMDLPEGQAGGPTAQMYLWEQPEEASSRPLLSLEEQILNSTFEACDPHKTGTVTVAHLLAYLEAVTGQGPQDVRLQTLARSLDPYGEGAGATVELDTFLVVMRDWIAACQLQGGLERAEETAYEGALASPHLPSVCPEAEESANLESFGGEDPRPEGPATAELLSNLEDLELSNRRLAGENAKLQRSVETAEEGSARLGEEITALRKQLRSTQQALQVAKALDEELEDLKTLAKSLEEQNRSLMAQARHTEKEQQHLAAEVETLQEENEKLLAERDGVKRRSEELATEKDALKRQLCECERLICQREAVLSERTRHAESLARTLEEYRTTTQELRQEISNLEEQLSQSQEGPEELLEGAEAGRVGWIMALPPSLDLEIQAIRQEQDVASAGLSSPLYGVWQWEEVEPEPEPEPEPEPEPEPQEVEFPSEDPARQQTDLQREPVRALEGSRAPCLRLSRSQEEEEEEEESWVLADPSSPLGTYHHKLAPGSSRESCHIVPEMHQALMPVVRDLVPVERSRTQHCLHPQHSPGIRISQHPLVPTPVLGLLLLLLLSILLFSQSPPPTWPHLQLYYLQPPPV
partner: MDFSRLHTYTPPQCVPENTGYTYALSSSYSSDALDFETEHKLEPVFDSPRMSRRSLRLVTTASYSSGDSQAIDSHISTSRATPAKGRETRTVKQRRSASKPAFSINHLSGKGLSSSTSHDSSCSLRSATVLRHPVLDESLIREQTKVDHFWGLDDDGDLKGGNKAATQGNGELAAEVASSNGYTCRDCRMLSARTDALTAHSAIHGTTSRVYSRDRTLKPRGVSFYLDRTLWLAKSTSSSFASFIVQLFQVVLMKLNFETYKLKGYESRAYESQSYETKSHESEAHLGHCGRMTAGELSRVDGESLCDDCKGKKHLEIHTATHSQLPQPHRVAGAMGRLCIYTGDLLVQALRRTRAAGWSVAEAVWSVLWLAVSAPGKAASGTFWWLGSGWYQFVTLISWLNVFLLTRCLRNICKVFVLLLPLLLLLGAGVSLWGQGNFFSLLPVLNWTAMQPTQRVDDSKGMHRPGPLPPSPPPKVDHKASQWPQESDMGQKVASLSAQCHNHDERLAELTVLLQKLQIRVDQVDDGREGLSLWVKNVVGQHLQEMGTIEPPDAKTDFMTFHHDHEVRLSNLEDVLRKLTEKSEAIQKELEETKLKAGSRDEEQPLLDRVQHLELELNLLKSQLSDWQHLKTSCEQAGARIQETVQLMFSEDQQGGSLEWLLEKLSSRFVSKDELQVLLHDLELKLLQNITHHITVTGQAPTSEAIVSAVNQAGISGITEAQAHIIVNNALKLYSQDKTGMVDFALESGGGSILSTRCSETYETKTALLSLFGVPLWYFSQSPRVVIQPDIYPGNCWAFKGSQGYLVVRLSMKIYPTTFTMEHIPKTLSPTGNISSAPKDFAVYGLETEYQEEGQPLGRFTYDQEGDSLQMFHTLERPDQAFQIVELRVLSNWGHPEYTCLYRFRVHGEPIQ
B2: Protein KASH5 (Mus musculus), Q80VJ8 (parent)
chain: B1 chain
partner: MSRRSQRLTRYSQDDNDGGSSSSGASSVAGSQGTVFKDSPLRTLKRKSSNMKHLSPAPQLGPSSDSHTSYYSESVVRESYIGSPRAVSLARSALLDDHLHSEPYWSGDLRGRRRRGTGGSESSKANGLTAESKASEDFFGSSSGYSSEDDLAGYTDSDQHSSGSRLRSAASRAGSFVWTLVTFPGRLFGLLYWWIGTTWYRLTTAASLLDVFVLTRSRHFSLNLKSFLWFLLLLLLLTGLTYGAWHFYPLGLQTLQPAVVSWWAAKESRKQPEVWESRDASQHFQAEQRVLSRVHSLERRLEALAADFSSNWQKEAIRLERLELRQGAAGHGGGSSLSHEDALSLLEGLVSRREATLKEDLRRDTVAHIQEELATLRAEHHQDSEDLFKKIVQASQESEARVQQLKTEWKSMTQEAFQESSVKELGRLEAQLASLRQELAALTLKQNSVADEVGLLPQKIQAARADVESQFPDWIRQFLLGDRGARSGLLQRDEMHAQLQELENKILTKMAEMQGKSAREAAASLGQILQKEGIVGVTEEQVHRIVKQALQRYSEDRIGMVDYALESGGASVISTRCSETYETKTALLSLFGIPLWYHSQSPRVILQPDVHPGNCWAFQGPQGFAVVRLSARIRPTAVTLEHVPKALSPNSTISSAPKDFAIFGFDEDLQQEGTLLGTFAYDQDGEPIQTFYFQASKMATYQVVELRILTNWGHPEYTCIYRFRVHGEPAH
B3: Protein KASH5 (Mus musculus), Q80VJ8 (parent)
chain: B1 chain

Variants of: B1
Settings: with sun1_mouse Sun1, Q9D666

Variant | effect of a mutation on the interaction
P645A;P646A;P647A | disrupting interaction strength

Variants of: B2
Settings: with sun2_mouse Sun2, Q8BJS4

Variant | effect of a mutation on the interaction
P645A;P646A;P647A | disrupting interaction strength

Variants of: B3
Settings: with sun1_human SUN1, O94901
Chain of sun1_human SUN1, O94901 (O94901 whole entry): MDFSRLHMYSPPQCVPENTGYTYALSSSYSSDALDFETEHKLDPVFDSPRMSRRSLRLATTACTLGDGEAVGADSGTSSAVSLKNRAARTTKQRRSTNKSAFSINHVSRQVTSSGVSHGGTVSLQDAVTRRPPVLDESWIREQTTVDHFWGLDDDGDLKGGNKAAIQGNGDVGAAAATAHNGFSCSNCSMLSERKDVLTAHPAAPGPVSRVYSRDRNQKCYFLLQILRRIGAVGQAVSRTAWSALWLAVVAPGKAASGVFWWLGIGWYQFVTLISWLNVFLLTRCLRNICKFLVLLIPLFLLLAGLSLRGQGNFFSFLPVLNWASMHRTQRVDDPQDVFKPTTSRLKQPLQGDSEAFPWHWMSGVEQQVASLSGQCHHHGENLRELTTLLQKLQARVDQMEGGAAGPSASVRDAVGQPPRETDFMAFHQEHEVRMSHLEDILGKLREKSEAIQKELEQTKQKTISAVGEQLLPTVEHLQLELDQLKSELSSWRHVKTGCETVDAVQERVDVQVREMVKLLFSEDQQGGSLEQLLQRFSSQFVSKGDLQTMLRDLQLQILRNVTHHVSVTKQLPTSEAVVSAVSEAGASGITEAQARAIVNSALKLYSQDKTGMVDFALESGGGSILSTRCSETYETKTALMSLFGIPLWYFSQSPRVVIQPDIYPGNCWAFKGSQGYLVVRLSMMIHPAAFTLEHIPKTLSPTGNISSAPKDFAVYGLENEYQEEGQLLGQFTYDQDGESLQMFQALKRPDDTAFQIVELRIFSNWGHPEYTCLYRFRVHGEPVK

Variant | effect of a mutation on the interaction
P645A;P646A;P647A | disrupting interaction
